Source: patent publication US20050260693A1 (MOUNT SINAI SCHOOL OF MEDICINE, published 2005)
Numbering of substitutions follows the chain as printed. Where no end group is shown, it is not given here. [ ]: non-standard residue; d: D form. pS = N[C@@H](COP(=O)(O)O)C(=O)O

T1: GST-322 fusion protein
T1 sequence: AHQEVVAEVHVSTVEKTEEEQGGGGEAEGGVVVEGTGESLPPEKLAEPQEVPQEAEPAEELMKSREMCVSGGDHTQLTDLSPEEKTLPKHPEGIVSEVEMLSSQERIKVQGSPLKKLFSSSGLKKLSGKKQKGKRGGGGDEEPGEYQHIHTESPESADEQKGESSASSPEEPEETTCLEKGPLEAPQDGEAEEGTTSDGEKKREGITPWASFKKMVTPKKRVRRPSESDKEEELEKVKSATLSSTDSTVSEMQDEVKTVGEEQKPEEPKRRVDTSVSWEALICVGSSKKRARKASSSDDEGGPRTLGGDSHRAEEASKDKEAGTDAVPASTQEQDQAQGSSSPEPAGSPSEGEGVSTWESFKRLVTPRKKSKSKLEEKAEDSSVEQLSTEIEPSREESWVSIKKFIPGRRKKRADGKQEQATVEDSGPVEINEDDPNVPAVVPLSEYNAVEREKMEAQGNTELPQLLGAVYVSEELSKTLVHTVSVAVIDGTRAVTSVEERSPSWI

T2: GST-322 prephosphorylated by PKC
T2 sequence: T1 sequence

B1: GST-SSeCKS2 with upstream KK mutated to SS (protein, not shown: a dimerising Fc or GST)
chain: AHQEVVAEVHVSTVEKTEEEQGGGGEAEGGVVVEGTGESLPPEKLAEPQEVPQEAEPAEELMKSREMCVSGGDHTQLTDLSPEEKTLPKHPEGIVSEVEMLSSQERIKVQGSPLSSLFSSSGLKKLSGKKQKGKRGGGGDEEPGEYQHIHTESPESADEQKGES
B2: GST-SSeCKS2 with downstream KK mutated to SS (protein, not shown: a dimerising Fc or GST)
chain: B1 chain with S115K, S116K, K124S, K125S

Tests used:
GST-322 fusion protein = test system: T1, GST-322 fusion protein
[1] = test system: T2, GST-322 prephosphorylated by PKC; assay: GST pull-down of PKC with phosphatidylserine; against the unphosphorylated fusion protein
[2] = target: T3, cyclin D1 (endogenous and ectopic) of S24, S24/D1, S24/V and V3 cells (UniProt P25322 1-295); assay: cell-based or functional assay
[3] = target: cyclin D1 (endogenous and ectopic) of S24, S24/D1, S24/V and V3 cells (UniProt P25322); assay: GST pull-down with mutated GST-SSeCKS2
[4] = target: T3, cyclin D1 (endogenous and ectopic) of …; assay: cell-based or functional assay; remark: listed apart in the source

T3 sequence (P25322 whole entry): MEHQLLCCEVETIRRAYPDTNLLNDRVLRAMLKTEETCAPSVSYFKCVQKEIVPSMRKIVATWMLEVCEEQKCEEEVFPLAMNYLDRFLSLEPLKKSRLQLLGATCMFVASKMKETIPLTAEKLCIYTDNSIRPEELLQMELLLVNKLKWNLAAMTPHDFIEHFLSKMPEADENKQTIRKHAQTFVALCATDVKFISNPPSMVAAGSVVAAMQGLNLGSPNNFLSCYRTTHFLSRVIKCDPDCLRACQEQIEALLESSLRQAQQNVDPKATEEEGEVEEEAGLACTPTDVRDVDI
Sequence of cyclin D1 (endogenous and ectopic) of S24, S24/D1, S24/V and V3 cells (UniProt P25322) (P25322 whole entry): as above

Molecule | % of cells showing nuclear staining of cyclin D1, S24/D1, -TET, peptide 100 µg/ml for 4 h [2] [%] | reduction of cyclin D1 binding against wild-type GST-SSeCKS2 [3] [%] | also measured
purified rabbit brain PKC |  |  | in vitro phosphorylation by PKC ([32P]ATP, SDS-PAGE and autoradiography) (GST-322 fusion protein): purified rat brain PKC containing α, β, and δ isoforms could phosphorylate GST-322 protein in vitro; fold decrease of binding after prephosphorylation by PKC [1]: Prephosphorylation of GST-322 by PKC decreases this binding at least 10-fold
RQIKIWFQNRRMKWKKLSSSFSSSGLSSSSGK (also: N-terminal biotin on half of the product) [penetratin-linked mutated CY peptide (K→S)] | 30 |  | 
RQIKIWFQNRRMKWKKLKKLF[pS]SSGLKKL[pS]GK (also: N-terminal biotin on half of the product) [penetratin-linked phosphoserine CY peptide] | 39 |  | 
B1 |  | 70 | 
B2 |  | 70 | 
RQIKIWFQNRRMKWKKLKKLFSSSGLKKLSGK (also: N-terminal biotin on half of the product) [penetratin-linked wt SSeCKS CY peptide] | 82 |  | increase in cyclin D translocation to nuclei, S24/D1 cells incubated 4 h with peptide [4]: ~2 fold
